Assay results published in the DeepSol protein solubility set.

Assay: soluble on expression in E. coli; label from the status in PepcDB or PDB records
In the case of “MIISPLFLKDKSNSEDDASWVSRMMPVDPERGFPLNSHRSWHGGIHIPHTDSGGTPEKIRAIADGTVHSLRQPVGDKKGIPPYNYNGATDCGYVLLKHETEIGSGENAKVVYFSLYMHLASIDAAVKTGEKIYRKDPIGTVGQVDGGNAVHFQIFCDDTNLTKLVGRTTPELDLTKNGRTDAVYGDMYFYLPTGTKFYSHAPANNATTTTEAETYTSTEPLFVSMSFDKGKCTMLTRKKGVFSIGKYSEVGEKLENTDGADYEYNVYAQAKKLYPQSQSAGYELLRFGRVINTDYETLVPADAPLWRTISYPGGKGVVNLALPAVKKFSDGDFPHWTGWQLIDDDTDENSQCNSEQVLCRIGDDMQGLICHLPLEWDASTLEKRLSWLKTTVINESLANQKASHQVDDTGNNASGYAFDNINPDMSVLNAQSTPSFEQAAKDTAMAEADWNALIEHAKALCFDVSGLPVGRVWHFNPISFIAHFRKCGWLDPEKIKSILTSALNKKRNVRKITLIEKASDSNYTFLNLAMRKYNILTPNRQSHFLGQGAVESDSLTAMQEVSQEQVIVNGKQTGGGIVIKSTLNESELGHWYGSEPSELDIYYSGNKYNKNGGLIAGSYSWSNGNCGDVDAQKFRGRGFKMLTGRDKYADYWVYRGWLLKSSFDAYWWDDVKYKSKNLKAMKKRPAIIDDPHKITASPYNCIDSGSFFITCFRRSTVKEIDKDQAESADDSVVTKVTQAINGGDIGLSQRKVMTNNAKGKLNDKY”, the “soluble on expression in E. coli” value is reported as “not soluble”. In the case of “MIITEKRHELILEELSHKDFLTLQELIDRTGCSASTIRRDLSKLQQLGKLQRVHGGAMLKENRMIEANLTEKLATNLDEKKMIAKIAANQINDNECLFIDAGSSTLELIKYIQAKDIIVVTNGLTHVEALLKKGIKTIMLGGQVKENTLATIGSSAMEILRRYCFDKAFIGMNGLDIELGLTTPDEQEALVKQTAMSLANQSFVLIDHSKFNKVYFARVPLLESTTIITSEKALNQESLKEYQQKYHFIGGTLLEHHHHHH”, the “soluble on expression in E. coli” value is reported as “soluble”. For “MIKEAIKQLAQDIGISKIGFTTADDFDYLEKSLRASVEEGRSSGFEHKNIEERIKPRLSLASAKTIISIAIAYPHKLPVKPPKTQYKRGKITPNSWGLDYHYVLEEKLQRLAQGIESLCQDFPLEHKIMVDTGALVDTAVAQRSGIGFIGKNGLVISKEFGSYMYLGELITNLEIEPDSPVDYDCGDCHRCLDACPTSCLLGDGSMNAKRCLSFQTQDKGMMDLEFRKKIKTVIYGCDICQICCPYNKGIHNPLASEIDPELAEPELLPFLELSNSQFKKKFGMIAGSWRGKNTLQRNAIIALANGHDKSALVKLMEIIDKNNNPIHTATAIWALGEIVKKPTQELYDFILSIHSDNDAIIKERTALLNRWQF”, the “soluble on expression in E. coli” value was “not soluble”. In the case of “MIKGMKTRGERLKARRLELKLTLKQVAEAVGISLPGVQNLERGDVMPSLEIGLSLAKCLRKPVQWILYGTESDPDRVPVIGTTETGPDRDWQPGEPANTERFLPFVSQRNTVYALTVGNQIQRNYQPGDVILVDSSLTLVPGEDVLVCDNNGEITIQRLARYDEQHYYLDSANSQRVIHDKSDLQFVHQVVGTIKSFMVEGR”, the “soluble on expression in E. coli” value is reported as “not soluble”. In the case of “MIKKIYFGNDHAAYEIKDQIITHLKQKGYQIIDEGAQAALGSVDYSTYALKVANDVVNDTKNDSIGILLCGTGIGMNIAASKVHGTRVALVYNESSAKLAKEHNNANIITIGARENSLNQILKMIDDFLTSKFLGERHQKRLDIIAKYEKEQNS”, the “soluble on expression in E. coli” value is reported as “soluble”. With “MIKKQDPLNHPESVDVAIIGAGPAGAVAAALLRQAGQQVLVLERQHFPRFSIGESLLPQSMAYLEQAGMLRAVVEAGFQYKNGAYFVHGDKTAAFDFRDKHSDGWGTTYQVERAAFDQILINCAADQGADVRFGHSVRAVQPGDAPVLEVQTESGDTYTVHARFILDASGFGRVLPRLLNLEAPTGMPLRAALFSHVQDALPAGMTDRNKICIAVHPERRDVWYWMIPLANGRSSVGCVAEASFLDIPEAEREAALRALIRAEPNIASLIGDAPFLMPVRHIGGYAANVEKLHGPGYALLGNAGEFLDPVFSSGVTIALRSADLAVRALLRQLAGETVDWQSVYDVPLRRGIDTFRAFIERWYTGELQDIIFHPQQAPGIRRMISAILAGYAWDETNPFVADPVRRLNTLHEVCRLEAVLEHHHHHH” the “soluble on expression in E. coli” value was “not soluble”. For “MIKKVVNLIMTKERRTFSSEFKLQMVRLYKNGKLKNEIIRKYDLKPSIISNSIKQHQNTGPFNHQDNLKSDEKELIKLRKEVQHLKMEHDVLKQILKLILEHHHHHH”, the “soluble on expression in E. coli” value was “not soluble”. For “MIKQIGTVAVYVEDQQKAKQFWTEKVGFDIAADHPMGPEASWLEVAPKGAETRLVIYPKAMMKGSEQMKASIVFECEDIFGTYEKMKTNGVEFLGEPNQMEWGTFVQFKDEDGNVFLLKE”, the “soluble on expression in E. coli” value was “not soluble”. With “MIKQRTLKQSIKVTGVGLHSGEKVTLTLRPAMPNTGVVYYRTDLNPAVAFPADPNSVRDTMLCTALINEQGVRISTVEHLNAALAGLGIDNIIIEVDAPEIPIMDGSASPFIYLLLDAGIEEQNAAKKFIRIKQYVRVEDGDKWAEFKPYNGFRLDFTIDFDHPAIGKDVRNYEMNFSAQAFVHQISRARTFGFMKDIEYLQSQGLVLGGSLDNAIVLDDYRILNEDGLRFKDELVRHKMLDAIGDLYMAGYNIIGDFKAYKSGHGLNNKLLRAVLANQEAWEFVTFEDKAQVPQGYVAPVQVLILEHHHHHH” the “soluble on expression in E. coli” value was “soluble”. With “MIKRNLLVMGLAVLLSACGFQLRGTGTTELAIKELDVSARNAYGETVTQLTRLLTSSGVKVYTGAPYKLILTSENETQRTISFSGSGRSAEYQLTNTLTYEIHGDRDRLLLDNKVSADRSYVHDGNNLTGSDQEASQVRQEMRNDLIQKLMARLQQLTPSRLDELQAKADAVAKAEADALEAAQRIRDETPQQSPVEVPARLEHHHHHH” the “soluble on expression in E. coli” value was “not soluble”. With “MIKVALPKGRLFEETVDLLLKRGIIEKRIEEGRKLILEEGGITFFLVKPSDVPVYVESGVSDLGVCGYDVYLEKKPSVYRLMDLGIGFCRIAVAGKPESEEKYFSSTHISVATKYPNIAYEFFKKKGVKADIYYLNGSVELAPLVGLSDFILDLVQTGRTLKENGLIVIEEVGKSTAWLIANKDSFRIKNGQIMEFLSRLVQHNKDGLQVQGSSLEHHHHHH” the “soluble on expression in E. coli” value was “not soluble”. For “MILIADSGSTKTDWCVVLNGAVIKRLGTKGINPFFQSEEEIQQKLTASLLPQLPEGKFNAVYFYGAGCTPEKAPVLRRAIADSLPVIGNIKANSDMLAAAHGLCGQKAGIACILGTGSNSCFYNGKEIVSNISPLGFILGDEGSGAVLGKLLVGDILKNQLPATLKEEFLKQFDLTPPEIIDRVYRQPFPNRFLASLSPFIAQHLEEPAIRQLVMNSFIAFFRRNVMQYDYKQYPVHFIGSIAYCYKEILQDAARQTGIQIGKILQSPMEGLIQYHSQLSFHPLEHHHHHH”, the “soluble on expression in E. coli” value was “soluble”. In the case of “MILLDTNVISEPLRPQPNERVVAWLDSLILEDVYLSAITVAEMRLGVALLLNGKKKNVLHERMEQSILPLFAGRILPFDEPVAAIYAQIRSYAKTHGKEIAAADGYIAATAKQHSMTVATRDTGSFFAADVAVFNPWHLEHHHHHH”, the “soluble on expression in E. coli” value is reported as “soluble”. In the case of “MILLSVHDSFLLDHNLPSACDKVFERLLDVTNSSFGFIATLQEDEDGQSLYLPAISNLAWDEETLTWYRHQRRTHGGLRLRKLDNLFGHVVTHNTVVCTNSLLRQKAGRDLPPIHPALHSLLGIPITHNGKTVGMIALANRREGYDQTMIELEHHHHHH”, the “soluble on expression in E. coli” value is reported as “not soluble”. In the case of “MILNIRKMGNSQGVILPKSLLGQIGAVDSLAVTVEKGNIILSCPTVRRGWAEAAAMLVETEQEHFFSEIENEADKEWIW”, the “soluble on expression in E. coli” value is reported as “not soluble”. For “MIMGFWNGVAKAAKAVGEGMIEAGNEHKALKMEYAEKSSEELHEIVKSDGFFKNSTREKSAAYAILKERGEV”, the “soluble on expression in E. coli” value was “not soluble”. In the case of “MINANRPIINLDLDLLRTFVAVADLNTFAAAAAAVCRTQSAVSQQMQRLEQLVGKELFARHGRNKLLTEHGIQLLGYARKILRFNDEACSSLMFSNLQGVLTIGASDESADTILPFLLSRISSVYPKLALDVRVKRNAYMVDMVKSQEVDLVVTTNQPHSLDCLNLRTSPTHWYCAAEYVLQRGEPVPLVLLDDPSPFRDMVLETLNAAGIPWRLAYVASTLPAVRAAVKAGLGVTARPVEMMSPDLRVLGAADGLPPLPDTEYLLCRDPNSQNELAMVIFHAMESYQNPWHYNQFSAEGGDDPLMVEGGFE”, the “soluble on expression in E. coli” value is reported as “not soluble”. With “MINIIGLGPGNLDYITKKGENLISTSDVLIGGKRNLESIKNFEGEKIVLDSNLREIIEYINNNKEKQISIIASGDPLIYGIGRYLSKNIDNKMLNMVSGISSLQYIFSKIYVDMNDVYITSSHGKVPDFDYILSHKKVCMVTDSKIGPKQISREIIDRNLNKIIVVGENLSYDNEKITIAKPEEIIRIDNFDMNVVVILDEE” the “soluble on expression in E. coli” value was “not soluble”. In the case of “MINIYYNVEPLRSNEEITDFVNKARNGTHGERNALLILIGLNTGLRMSDILNLKVGQIRYHDIVHITEKKTKKRRVILLTRLRPQINHYIKDLPDNEYLFTNRQHQPLSVNAVYKLFQTIARKMHRTDIGTHTLRKTFGYHYYQQTHDIGTLMMIFNHSNEAITKRYIGLNQDVILKQMAGFQLGLEYEKATNMR”, the “soluble on expression in E. coli” value is reported as “not soluble”. In the case of “MINKPNQFLNHLDGLKQHFSDYDSLQKSFKKYLSENQTELNNFFFNQFEKIIVLVKKKEFKTAQERCEEELATPYFSKPLVGFFQSLLQLINHDLIEQKNQQLANMSCEKIVEMVLSDYPNKLNLIHYLLAKEASFVNPNLLQRMTFVLTDLELLELKRFSFFKALNQIPAFKNHKVTYFNSKLKQKFVITLGEFAFPQTDKTKQFFQQLIKKVSQLFLKEPVSCEFAYEIIDALLVSFFPLHPNLEVNHLAKKIHQYVSKIVINEVVDLKDPTTKLIVDTLYEQLDRAIGEEN”, the “soluble on expression in E. coli” value is reported as “soluble”. With “MINMTRKLYYEDAYLKEAKGRVLEIRDNAILLDQTIFYPTGGGQPHDRGTINGVEVLDVYKDEEGNVWHVVKEPEKFKVGDEVELKIDWDYRYKLMRIHTGLHLLEHVLNEVLGEGNWQLVGSGMSVEKGRYDIAYPENLNKYKEQIISLFNKYVDEGGEVKIWWEGDRRYTQIRDFEVIPCGGTHVKDIKEIGHIKKLKRSSIGRGKQRLEMWLE” the “soluble on expression in E. coli” value was “soluble”. With “MINSINIQIRETNTDDFDSIMTVEKQAFGYDKEAQLVADLLADKTAEPMVSLLAFYKGEAVGHILFTRAYFDGQGALQMMHILAPLAVKPEYQRQGIGGMLIRAGIERLQEKGSCLVFVLGHKEYYPEYGFIPDAARLGYPAPYPILEQFSDYWMVQAISPKGFDVDKGKIRCSDELNKPEHWRDDESDR” the “soluble on expression in E. coli” value was “not soluble”. In the case of “MIPLSIRVPASTANVGPGFDSVGIALSLYLHVVVKEKSDKWQVIHSFEDSIPTDDKNLIVSTACKVCPSLSPHIIEVTSNIPLTRGLGSSASAIVAGIELANQLGKLNLTIDQKVQIATNFEGHPDNVAASILGGTVIGALDGKNVSVVRIESKELGVISLIPNEELNTDESRSVLPDVFPFHEAVKASAISNVLVAALCQKKWKVVGEMMERDHFHEPYRLELVPLLPSIRKCAKEFGAYGTALSGAGPSIFILTPYEKRQEIAEQLARVFTSMKVCELEIDHRGITVNKKEHIGL”, the “soluble on expression in E. coli” value is reported as “not soluble”. In the case of “MIPLVSIIVPMYNVEPFIEECIDSLLRQTLSDIEIILVNDGTPDRSGEIAEDYAKRDARIRVIHQANGGLSSARNTGIKAARGTYIGFVDGDDYVSSAMFQRLTEEAEQNQLDIVGCGFYKQSSDRRTYVPPQLEANRVLTKPEMTEQLKHAHETRFIWYVWRYLYRRELFERANLLFDEDIRFAEDSPFNLSAFREAERVKMLDEGLYIYRENPNSLTEIPYKPAMDEHLQKQYQAKIAFYNHYGLAGACKEDLNVYICRHQLPMLLANACASPNSPKDIKKKIRQILSYDMVRQAVRHTPFQHEKLLRGERLVLALCKWRLTFLIKLFFEQRGTMKGSAKQALEHHHHHH”, the “soluble on expression in E. coli” value is reported as “not soluble”. With “MIPMEELKVKKITNGTVIDHIDAGKALMVFKVLNVPKETSVMIAINVPSKKKGKKDILKIEGIELKKEDVDKISLISPDVTINIIRNGKVVEKLKPQIPDEIEGTLKCTNPNCITNKEKVRGKFKIESKNPLKIRCYYCEKFLNEVIFE” the “soluble on expression in E. coli” value was “soluble”.
